Earlier results in patent US20180161372A1, “COMPOSITION FOR TREATING BRAIN LESIONS” (ORGANES TISSUS REGENERATION REPARATION REMPLACEMENT - OTR3, priority 2015, published 2018).

Test system: patients
Settings: strictly selected stroke patients

rt-PA: t-PA (tissue plasminogen activator), thrombolysis approved for ischemic stroke
patients developing a cerebral hemorrhage following administration: 13%
